PMC3858840 (2013)
No end group written: not given here.

Target: calmodulin (Homo sapiens, UniProt P0DP23)
Experiment: TMR fluorescence titration

Kd: ~1000 nM
Binder: ARRLKKGKKSKRSMNDPY (also: TMR label, site not given here) [TMR-labeled L-selectin cytoplasmic peptide cytoplasmic domain]
